The assay concerns the target unfused negative control SGFP2. Briefly: pull-down; SGFP2-fused proteins held on protein G magnetic beads via anti-GFP pAb; incubated with Nluc-ALG-2 (300 ng/mL) in buffer HKM, 0.2% Nonidet P-40, 0.1% gelatin, 100 μM CaCl2, 2 h, 4 °C; bound luciferase activity relative to Sec31A-p (100%).

nanoluciferase (NanoLuc, Nluc)-fused ALG-2, sequence (O75340 whole entry, the tested form may be a part): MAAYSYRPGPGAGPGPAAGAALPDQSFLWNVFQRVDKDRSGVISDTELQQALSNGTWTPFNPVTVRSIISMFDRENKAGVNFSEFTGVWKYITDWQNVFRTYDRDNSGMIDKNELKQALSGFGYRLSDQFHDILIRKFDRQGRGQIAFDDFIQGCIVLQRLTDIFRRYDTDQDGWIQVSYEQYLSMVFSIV

On to “nanoluciferase (NanoLuc, Nluc)-fused ALG-2 (from UniProt O75340 1-191) (natural protein)”, for which the binding activity relative to Sec31A-p (100%) came out at 0.18%.
